The values below come from patent publication US20250340649A1 (RUTGERS THE STATE UNIVERSITY OF NEW JERSEY, published 2025).

In assay [1] the target is T1, HER2 on the surface of HER2+ cancer cells (BT474, SKOV-3) (human, UniProt P04626 23-1255).
T1 construct: whole, on cells; also called human epidermal growth factor receptor 2
The assay can be described thus: flow cytometry on BT-474 cells (HER2+), 100 nM binding sites. How it is done:
(§1) OVASC-1 is an ascites-derived epithelial ovarian cancer cells obtained from a patient with advanced metastatic disease (11, 12). The expressed VHHs were then incubated with HER2⁺ (BT474, JIMT-1, and SKOV-3) and HER2⁻ (MDA-MB-231) cancer cell lines. Approximately 10⁶ cells were counted and washed using DPBS-1% FBS. […] After washing, FITC-conjugated anti-Human IgG or anti-Histag antibody were added and incubated on ice for 60 min. Cells were washed three times and then analyzed using Beckman-Coulter Gallios flow cytometer at Rutgers Flow cytometry core facility.
(§2) In the next step, the ability of the VHHs to recognize and bind to HER2 on the surface of HER2+ cancer cells was evaluated. […] MDA-MB-231 and OVASC-1 (HER2⁻) cancer cells were used as negative controls.
A general note: Flow cytometry measures light scatter and fluorescence of single cells or particles in a stream.

Assay [2] has as its target T1, HER2 on the surface of HER2+ cancer …. The assay can be described thus: flow cytometry on SKOV-3 cells (HER2+), 100 nM binding sites. How it is done: as §1, §2
The target in another assay is T2, HER1 (human, UniProt P00533 25-645).
T2 construct: The text says only 'HER1'; also called Recombinant human EGFR protein (Fc Chimera), Abcam ab155726; Fc part of the bought chimera not given
The assay can be described thus: ELISA, periplasmic extract on coated antigen, anti-HA-HRP. The text has this: (§3) FIGS. 4A-4B. FIG. 4A) PBMCs were isolated using Ficoll-Paque method. Then, the RNAs were extracted, cDNA library was generated, genes amplified, and then cloned into pMECS-GG phagemids. The phagemids were used in phage display and the screened candidates were used to infect TG1 bacteria. Colonies were selected, grown, lysed, and the lysates removed. FIG. 4B) The lysates were then used in ELISA to screen for VHHs with the highest affinity to HER2 and with negligible binding to HER1, HER3, and HER4. Bovine serum albumin (BSA) and skim milk were used as controls.
(§4) The next day, each well was washed three times with washing buffer (DPBS+0.1% Tween 20) and then incubated with blocking buffer (2% skimmed milk) for 2 h at RT to block the free binding sites. Next, blocking buffer was replaced with 100 μL of periplasmic extract from above and incubated for 1 h at RT while shaking at 700 rpm. Each well was washed six times with washing buffer (DPBS+0.1% Tween 20) followed by addition of 100 μL HRP Anti-HA tag antibody (1:10000 dilution) and incubation for 1 h at RT while shaking at 700 rpm. Each well was washed again six times, followed by addition of 50 μL 1-Step™ Turbo TMB-ELISA substrate solution at incubation at RT for 15 min (without shaking and at dark). The reaction was stopped by adding 50 μL of stop solution ([…] sulfuric acid) and the plate was read at 450 nm using 630 nm as a reference (450/630 nm).
On the technique in general: An ELISA detects its analyte on a solid surface through an enzyme-linked reagent.

For the next assay, the target named is T3, HER3 (human, UniProt P21860 20-643, limits assumed).
T3 construct: also called Recombinant Human ErbB 3 protein, Abcam ab196072
Described as above.
Description: as §3, §4

A further assay concerns the target T4, Bovine serum albumin (bovine, UniProt P02769 25-607).
T4 construct: Control antigen; also called BSA
Described as above.
Description: as §3, §4

Assay [3] addresses T1, HER2 on the surface of HER2+ cancer …. The assay can be described thus: flow cytometry, SKOV-3 (HER2+) cells, tenfold dilutions 0.001-1000 nM.
In assay [4] the target is T5, Biotinylated Human Fc gamma RIIIA/CD16a (F176) Protein, Avitag, His Tag (Acrobiosystems CDA-H82E8) (human, UniProt P08637 17-208, biotinylated (Avitag)).
T5 construct: also called biotinylated CD16a; CD16a antigen
T5 sequence (P08637 17-208 limits assumed): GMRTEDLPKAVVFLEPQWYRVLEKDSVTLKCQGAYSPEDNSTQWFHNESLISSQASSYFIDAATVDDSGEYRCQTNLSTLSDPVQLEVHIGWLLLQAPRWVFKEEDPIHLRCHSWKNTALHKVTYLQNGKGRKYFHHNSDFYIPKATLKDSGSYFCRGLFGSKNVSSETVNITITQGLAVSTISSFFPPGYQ
The assay can be described thus: BLI (Octet), biotinylated CD16a on streptavidin sensor, BiKE 1.875-60 nM. How it is done: (§5) An Octet® Streptavidin (SA) Biosensor was soaked for at least 10 min in DPBS supplemented with 0.1% Casein, biotinylated CD16a, CD16b-NA1, CD16b-NA2, and HER2 antigens were loaded onto the streptavidin (SA) biosensor until 1 nm shift was reached. Next, the sensor was dipped into the washing buffer (DPBS+0.05% Tween 20+0.1% Casein) for 2 min to reach the baseline. […] Then, in the dissociation step, sensors were dipped into the washing buffer for 5 min to acquire data (Table 5). The data were then analyzed using Octet Data Analysis HT 11.1 software. The sensorgrams were subtracted from the reference and fitted into 1:1 binding model for data analysis. Finally, the affinity and kinetics were analyzed using “Association and Dissociation”.
(In BLI a coated tip is dipped into the sample, and binding shifts an interference pattern.)

Assay [5] concerns the target T6, Biotinylated Human Fc gamma RIIIB/CD16b (NA1) Protein, His, Avitag (Acrobiosystems CDB-H82E4) (human, UniProt O75015 17-200, biotinylated (Avitag)).
T6 construct: NA1 allele; also called CD16b-NAI
The assay can be described thus: BLI (Octet), biotinylated CD16b-NA1 on streptavidin sensor, BiKE 1.875-60 nM. As for the experimental part:
as §5

Assay [6] deals with T7, Biotinylated Human Fc gamma RIIIB/CD16b (NA2) Protein, His, Avitag (Acrobiosystems CDB-H82Ea) (human, UniProt O75015 17-200, biotinylated (Avitag)).
T7 construct: NA2 allele; also called CD16-NA2
T7 sequence (O75015 17-200 N65S limits assumed): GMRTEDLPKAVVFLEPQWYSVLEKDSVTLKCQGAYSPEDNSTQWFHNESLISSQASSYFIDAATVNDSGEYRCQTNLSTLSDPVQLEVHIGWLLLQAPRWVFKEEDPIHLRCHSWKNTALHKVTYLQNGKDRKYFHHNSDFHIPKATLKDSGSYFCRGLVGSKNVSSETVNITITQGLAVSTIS
The assay can be described thus: BLI (Octet), biotinylated CD16b-NA2 on streptavidin sensor, BiKE 1.875-60 nM. As for the experimental part:
as §5

Assay [7] deals with T8, CD16a on NK92 (CD16+) cells (human, UniProt P08637 17-254).
T8 construct: whole, on cells; also called NK92 cells (CD16a+); haNK92 cells (CD16a+)
T8 sequence (P08637 17-254 F176V): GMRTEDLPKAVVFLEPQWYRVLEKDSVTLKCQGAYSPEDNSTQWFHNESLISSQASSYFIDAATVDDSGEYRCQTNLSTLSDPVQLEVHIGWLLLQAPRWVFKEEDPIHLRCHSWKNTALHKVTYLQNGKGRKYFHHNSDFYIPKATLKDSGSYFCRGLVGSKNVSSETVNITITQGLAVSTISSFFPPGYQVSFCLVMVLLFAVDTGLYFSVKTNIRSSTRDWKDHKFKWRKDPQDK
The assay can be described thus: flow cytometry, fixed haNK92 (CD16+) cells, tenfold dilutions, anti-histag-FITC. As for the experimental part: First, CD16a+NK92 was harvested and washed once using Dulbecco's phosphate-buffered saline (DPBS) supplemented with 2% FBS (2% DPBS-FBS). Next, all the cells were fixed using 3.7% paraformaldehyde for 20 min at RT, followed by washing twice. […] Following washing three times, the secondary antibody, anti-Histag antibody FITC labeled, was added. After washing, the samples were run on Cytoflex using FL1 channel.

In assay [8] the target is T5, Biotinylated Human Fc gamma RIIIA/CD16a …. The assay can be described thus: ELISA, biotinylated CD16a on streptavidin plate, tenfold dilutions 0-1000 nM, anti-cMyc-HRP. How it is done: For ELISA, 50 μL of biotinylated CD16a was added to the streptavidin-coated plate and incubated for 45 min at RT. […] Next, 100 μl anti-cMyc tag HRP conjugated secondary antibody (1:10,000 dilutions) was added. Finally, after washing, the substrate was added for color development, and the plate was read using OD of 450 nm.

Assay [9] has as its target T9, Biotinylated Human Her2/ErbB2 Protein, His, Avitag (AcroBiosystem HE2-H82E2) (human, UniProt P04626 23-652, biotinylated (Avitag)).
T9 construct: Bought protein; Loaded on streptavidin sensors for BLI; also called biotinylated HER2; HER2 antigen
The assay can be described thus: ELISA on HER2, tenfold dilutions 0-1000 nM; the HER2 form is not stated for this ELISA, Table 17 lists only the biotinylated HER2.

Residue numbers refer to the chain shown, from its start.

T6 sequence (O75015 other isoform, or with tags, fused parts or gaps limits assumed): as the sequence (O75015 17-200 N65S limits assumed) above, with S20R, S49N, N66D, I90V counted along it
T4 sequence (P02769 25-607 limits assumed): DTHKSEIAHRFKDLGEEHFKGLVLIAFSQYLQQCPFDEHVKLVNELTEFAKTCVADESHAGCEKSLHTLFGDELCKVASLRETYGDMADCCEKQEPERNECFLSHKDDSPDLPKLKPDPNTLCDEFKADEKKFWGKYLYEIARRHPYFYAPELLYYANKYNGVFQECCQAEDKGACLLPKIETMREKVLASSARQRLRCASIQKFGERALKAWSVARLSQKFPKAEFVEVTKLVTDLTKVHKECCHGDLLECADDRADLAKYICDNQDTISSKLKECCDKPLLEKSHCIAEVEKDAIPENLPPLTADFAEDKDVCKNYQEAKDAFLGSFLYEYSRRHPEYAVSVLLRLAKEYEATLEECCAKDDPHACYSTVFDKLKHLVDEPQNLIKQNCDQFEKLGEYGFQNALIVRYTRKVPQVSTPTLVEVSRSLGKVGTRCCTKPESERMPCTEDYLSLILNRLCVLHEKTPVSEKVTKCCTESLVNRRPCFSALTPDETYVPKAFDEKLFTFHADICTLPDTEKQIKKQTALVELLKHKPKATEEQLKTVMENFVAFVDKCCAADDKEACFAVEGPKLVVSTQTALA

B1: F4 anti-HER2 VHH (VHH)
VHH: QVQLQESGGGLVQAGGSLKLSCAASGRTLSAYVVGWFRQAPGKERESVAAIGWSSRSPYYPDSVKGRFTISEDNTKNTVYLQMNSLKPDDTAVYYCAADSYPRRWDRESDFGSWGQGTQVTVSS
Consider B1, for which the entries for the “FITC+ (%)” value in assay [1] and in [2] were 98.5% and 93.3%, respectively. In addition, the “FITC- (%)” value in assay [1] turned out to be 1.45%; in assay [2], 6.51%. Also, the “Mean (MFI)” value was 99500 in assay [1] and 86400 in [2]. Further, the binding result with HER1 is recorded as “no binding (tested: extract, conc. not given)”; with HER3, “no binding (tested: extract, conc. not given)”; in the assay with Bovine serum albumin, “no binding (tested: extract, conc. not given)”.

B2: H7 anti-HER2 VHH (VHH)
VHH: B1 VHH with K19R, R27H, A31T, G35A, S55T, P61A
In the case of B2, the figures for the “FITC+ (%)” value in [1] and in assay [2] were 98.3% and 94.8%, respectively. For the same molecule, the “FITC- (%)” value in assay [1] came out at 1.72%; in assay [2] it was 5.02%. The “Mean (MFI)” value was 100000 in assay [1] and 99900 in assay [2]. The binding result with HER1 is recorded as “no binding (tested: extract, conc. not given)”; in the assay with HER3, “no binding (tested: extract, conc. not given)”; in the assay with Bovine serum albumin, “no binding (tested: extract, conc. not given)”.

B3: E9 anti-HER2 VHH (VHH)
VHH: B1 VHH with L11S, K43R, S55T, R56H, P58V, P61A, E72R, K76E, Y101S
Regarding B3, the “FITC+ (%)” value was 98.2% in assay [1] and 93.1% in assay [2]. The “FITC- (%)” value is 1.85% in [1] and 6.76% in assay [2]. For the same molecule, the “Mean (MFI)” value is 97900 in assay [1] and 88100 in [2]. For the same molecule, the binding result in the assay with HER1 is “no binding (tested: extract, conc. not given)”; with HER3, “no binding (tested: extract, conc. not given)”; with Bovine serum albumin it was “no binding (tested: extract, conc. not given)”.

B4: F2 anti-HER2 VHH (VHH)
VHH: B1 VHH with K43R, S55T, R56H, P58V, P61A, E72R, K76E, Y101S
For the molecule B4, the “FITC+ (%)” value in assay [1] stood at 98.6%; in assay [2], 93.1%. The “FITC- (%)” value in assay [1] amounted to 1.42%; in assay [2], 6.68%. For the same molecule, the results for the “Mean (MFI)” value in assay [1] and in assay [2] were 99500 and 100000, respectively. Besides, the binding result in the assay with HER1 is given as “no binding (tested: extract, conc. not given)”; with HER3 it was “no binding (tested: extract, conc. not given)”; with Bovine serum albumin it was “no binding (tested: extract, conc. not given)”.

B5: D6 anti-HER2 VHH (VHH)
VHH: B1 VHH with K19T, L29F, A31T, S54A, R56N, P61A, E72R, N84K
B5: the “FITC+ (%)” value in [1] is 98.1%; in assay [2], 94.6%. Besides, the “FITC- (%)” value was found to be 1.86% in [1] and 5.24% in [2]. For the same molecule, the “Mean (MFI)” value in assay [1] was 96100; in [2], 89400. In addition, the binding result in the assay with HER1 is “no binding (tested: extract, conc. not given)”; with HER3, “no binding (tested: extract, conc. not given)”; with Bovine serum albumin it was “no binding (tested: extract, conc. not given)”.

B6: E5C1 BiKE (BiKE: HER2/CD16a) (bispecific antibody)
chain: QVQLQESGGGLVQAGGSLRLDCAASGRTLSSYVVGWFRQAPGKEREVVAAIGWSRTSTFYTDSVKGRFTISRDNTENTVYLQMNSLKPGDTAVYYCAADSSPRRWDRESDFGSWGQGTQVTVSSPSGQAGAAASESLFVSNHASQVQLQESGGGLVQAGGSLRLSCAASGRTFRLYRMGWFRQAPGKEREFVGSIKMIDGSTLYGDPVKGRFTISRDNTKFMAYLQMNSLKPEDTAVYYCASVSRVTGSYDSWGQGTQVTVSSWELQGSEQKLISEEDLHHHHHHHHHHHH
notes: Monomer by LC-MS; also called BIKE: CD16a/HER2
Regarding B6, the half-maximal effective concentration (EC50 (read off the curve)) in assay [3] was approximately 1 nM; in [7], approximately 1 nM; in assay [8] it was approximately 0.3 nM; in assay [9] it was approximately 0.4 nM. For the same molecule, the Kd in assay [4] stood at 2.7 nM; in assay [5], 1730 nM; in [6], 6.71 nM. For the same molecule, the off-rate (koff) in assay [4] was 0.00051 s⁻¹; in assay [5] it was 0.0743 s⁻¹; in assay [6], 0.000946 s⁻¹. Besides, the values for the kon in assay [4], in [5] and in [6] were 189000 M⁻¹ s⁻¹, 42900 M⁻¹ s⁻¹ and 140000 M⁻¹ s⁻¹, respectively.

As usually defined, the EC50 (read off the curve) is the concentration needed to bring the measured effect to its halfway point. A high value points to a need for much substance. By Kd is commonly meant the constant that tells how readily two partners part at equilibrium. Read a low Kd as tighter binding. One may read the koff as the rate constant with which the complex falls apart. The low end stands for a long-lived complex, the high end for a short-lived complex. What is called kon is the second-order rate constant of association. Low values mean slower complex formation, high ones faster complex formation.
